Series [1] deals with T1, Nucleolin (NCL) (UniProt P19338 1-710). In words: EMSA; complex I, NCL in excess; Kd taken as protein concentration retarding 50% of probe; 20 mM Tris-HCl pH 7.5, 50 mM KCl, 10% glycerol, 0.3 mg/mL BSA, 0.02% Nonidet P-40, 15 uL, 2 pmol 32P-RNA, 20 °C 30 min (competition: further 30 min); native 7%. The following applies: protein: recombinant, tags: His. (In general: In EMSA bound probe runs differently from free probe, usually more slowly.)

Series [2] addresses T1, Nucleolin (NCL). As to the kind of experiment: EMSA; complete loss of retardation; 20 mM Tris-HCl pH 7.5, 50 mM KCl, 10% glycerol, 0.3 mg/mL BSA, 0.02% Nonidet P-40, 15 uL, 2 pmol 32P-RNA, 20 °C 30 min (competition: further 30 min); native 7%. The settings on record: protein: recombinant; tags: His; label: 32P; predicted fold, CGA at junction of double-stranded and unstructured region.

The target of series [3] is T1, Nucleolin (NCL). As to the kind of experiment: EMSA; printed as KD >= 1500 nM; still interacts with very low affinity; 20 mM Tris-HCl pH 7.5, 50 mM KCl, 10% glycerol, 0.3 mg/mL BSA, 0.02% Nonidet P-40, 15 uL, 2 pmol 32P-RNA, 20 °C 30 min (competition: further 30 min); native 7%. The settings on record: protein: recombinant; tags: His; label: 32P; predicted fold, CGA in bubble.

The Kd is the equilibrium constant for the complex coming apart.

T1 sequence (P19338 whole entry): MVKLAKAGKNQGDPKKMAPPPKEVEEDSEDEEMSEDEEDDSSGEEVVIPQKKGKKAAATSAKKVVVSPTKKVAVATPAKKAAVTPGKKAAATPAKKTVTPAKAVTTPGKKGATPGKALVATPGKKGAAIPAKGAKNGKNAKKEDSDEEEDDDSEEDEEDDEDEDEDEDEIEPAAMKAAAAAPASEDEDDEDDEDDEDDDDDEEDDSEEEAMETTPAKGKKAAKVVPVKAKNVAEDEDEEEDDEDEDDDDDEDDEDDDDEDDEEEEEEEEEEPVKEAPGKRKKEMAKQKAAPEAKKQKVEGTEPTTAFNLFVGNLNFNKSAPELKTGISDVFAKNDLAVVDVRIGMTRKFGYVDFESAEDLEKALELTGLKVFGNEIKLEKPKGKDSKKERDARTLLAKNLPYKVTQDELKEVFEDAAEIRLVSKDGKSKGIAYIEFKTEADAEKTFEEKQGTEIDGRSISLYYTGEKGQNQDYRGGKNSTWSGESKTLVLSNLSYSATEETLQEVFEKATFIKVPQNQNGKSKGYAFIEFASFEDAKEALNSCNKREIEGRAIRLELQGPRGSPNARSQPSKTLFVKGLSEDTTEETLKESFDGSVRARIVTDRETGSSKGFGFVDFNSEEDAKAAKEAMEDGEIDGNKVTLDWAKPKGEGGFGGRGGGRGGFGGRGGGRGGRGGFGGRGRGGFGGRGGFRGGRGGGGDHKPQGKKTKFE

For AGGCGGCCCGGGUUCGACUCCCGGUGUGGGAA (structured_RNA) [wt tRF3E], the Kd with Nucleolin (NCL) [1] (hairpin (predicted stems, CGA 15-17 in loop)) was approximately 280 nM.

Turning to AGGCGGCCCGGGUUCGACUAAAUGUGUGGGAA (structured_RNA) [M19-24], the Kd with Nucleolin (NCL) [1] (hairpin (predicted, CGA 15-17 in loop)) is approximately 280 nM.

For the molecule AGGCGGAAAUGGUUCGACUCCCGGUGUGGGAA (structured_RNA) [M6-11], the binding result in the series with Nucleolin (NCL) [2] was “no binding”.

Consider AGGCGGAAAUGGUUCGACUAAAUGUGUGGGAA (structured_RNA) [D2M], for which the Kd with Nucleolin (NCL) [3] is more than 1500 nM.

Values taken from article PMC12293987, “Dissecting the tRNA Fragment tRF3E–Nucleolin Interaction: Implications in Breast Cancer”.
